Laboratory results as given in patent publication US20190352419A1 (ALX ONCOLOGY, published 2019).
Positions count from the first letter of the chain named. Names and notes keep the numbering of the source.

T1: BL6 mouse SIRP-α protein (mouse (C57BL/6 strain), UniProt P97797 32-148)
T1 construct: Soluble SPR analyte; also called C57BL/6
T1 sequence: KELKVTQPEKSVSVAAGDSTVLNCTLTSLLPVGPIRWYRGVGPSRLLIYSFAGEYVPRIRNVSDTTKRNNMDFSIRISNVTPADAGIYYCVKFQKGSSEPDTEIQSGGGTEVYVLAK

T2: cynomolgus SIRP-α (SEQ ID NO:11) (cynomolgus, UniProt Q5TFQ8 30-148 (human entry))
T2 construct: 'extracellular domain (e.g., the D1 domain)' of a cynomolgus SIRP-α polypeptide; soluble SPR analyte; also called cyno1
T2 chain: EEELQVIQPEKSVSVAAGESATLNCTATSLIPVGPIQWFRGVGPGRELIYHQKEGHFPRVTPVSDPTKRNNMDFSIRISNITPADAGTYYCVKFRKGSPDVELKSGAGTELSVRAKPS

T3: NOD mouse SIRP-α protein (mouse (NOD strain))
T3 construct: Soluble SPR analyte
T3 chain: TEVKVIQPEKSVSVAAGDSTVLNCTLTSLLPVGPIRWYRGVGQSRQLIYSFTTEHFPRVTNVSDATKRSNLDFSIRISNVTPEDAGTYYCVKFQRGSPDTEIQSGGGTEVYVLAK

T4: BALBc mouse SIRP-α protein (mouse (BALB/c strain))
T4 construct: Soluble SPR analyte
T4 chain: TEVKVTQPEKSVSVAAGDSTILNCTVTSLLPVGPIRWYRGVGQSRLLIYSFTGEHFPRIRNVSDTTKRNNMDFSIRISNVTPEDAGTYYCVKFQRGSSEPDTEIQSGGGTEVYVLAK

B1: Hum8/AB21_HC_Mutall (antibody, V domains shown)
VH: EVQLVESGGGVVQPGGSLRLSCAASGFTFSSNAMSWVRQAPGKGLEWVAGISAGGSDTYYPASVKGRFTISRDNSKNTLYLQMNSLRAEDTAVYYCARETWNHLFDYWGQGTLVTVSS
VL: SYELTQPPSVSVSPGQTARITCSGGAYSSYYYAWYQQKPGQAPVLVIYSDSKRPSGIPERFSGSSSGTTVTLTISGVQAEDEADYYCGGYDQSSYTNPFGGGTKLTVL
B2: Hum9/AB21_HC_Mutall (antibody, V domains shown)
VH: B1 VH
VL: B1 VL with S51D
B3: PC301 (antibody, human IgG1, lambda, N297A)
heavy: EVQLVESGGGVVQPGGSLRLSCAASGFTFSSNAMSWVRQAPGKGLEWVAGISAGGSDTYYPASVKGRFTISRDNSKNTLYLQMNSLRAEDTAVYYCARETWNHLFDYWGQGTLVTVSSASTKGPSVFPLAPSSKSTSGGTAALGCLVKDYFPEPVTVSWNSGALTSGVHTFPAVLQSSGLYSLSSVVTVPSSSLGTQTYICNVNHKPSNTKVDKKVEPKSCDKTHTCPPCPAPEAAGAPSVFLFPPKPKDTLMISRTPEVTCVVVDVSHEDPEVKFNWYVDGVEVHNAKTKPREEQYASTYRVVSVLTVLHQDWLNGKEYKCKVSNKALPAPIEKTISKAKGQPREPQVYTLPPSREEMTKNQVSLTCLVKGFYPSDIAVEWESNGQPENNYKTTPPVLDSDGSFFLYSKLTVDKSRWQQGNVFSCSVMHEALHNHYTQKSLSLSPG
light: SYELTQPPSVSVSPGQTARITCSGGSYSSYYYAWYQQKPGQAPVTLIYSDDKRPSNIPERFSGSSSGTTVTLTISGVQAEDEADYYCGGYDQSSYTNPFGGGTKLTVLGQPKAAPSVTLFPPSSEELQANKATLVCLISDFYPGAVTVAWKADSSPVKAGVETTTPSKQSNNKYAASSYLSLTPEQWKSHRSYSCQVTHEGSTVEKTVAPTECS
notes: also called antibody PC301
B4: PC367 (antibody, human IgG2, lambda, N297A)
heavy: EVQLVESGGGVVQPGGSLRLSCAASGFTFSSNAMSWVRQAPGKGLEWVAGISAGGSDTYYPASVKGRFTISRDNSKNTLYLQMNSLRAEDTAVYYCARETWNHLFDYWGQGTLVTVSSASTKGPSVFPLAPCSRSTSESTAALGCLVKDYFPEPVTVSWNSGALTSGVHTFPAVLQSSGLYSLSSVVTVPSSNFGTQTYTCNVDHKPSNTKVDKTVERKCCVECPPCPAPPVAGPSVFLFPPKPKDTLMISRTPEVTCVVVDVSHEDPEVQFNWYVDGVEVHNAKTKPREEQFASTFRVVSVLTVVHQDWLNGKEYKCKVSNKGLPAPIEKTISKTKGQPREPQVYTLPPSREEMTKNQVSLTCLVKGFYPSDIAVEWESNGQPENNYKTTPPMLDSDGSFFLYSKLTVDKSRWQQGNVFSCSVMHEALHNHYTQKSLSLSPG
light: B3 light with K104Q, A114N, S116T, S154G, T165K, N171S, N172D
notes: AB21 MutAll VH + human IgG2 N297A; Hum1 VL version 2 + IGLC1 SD light chain
B5: PC334 (antibody, human IgG1, lambda, N297A)
heavy: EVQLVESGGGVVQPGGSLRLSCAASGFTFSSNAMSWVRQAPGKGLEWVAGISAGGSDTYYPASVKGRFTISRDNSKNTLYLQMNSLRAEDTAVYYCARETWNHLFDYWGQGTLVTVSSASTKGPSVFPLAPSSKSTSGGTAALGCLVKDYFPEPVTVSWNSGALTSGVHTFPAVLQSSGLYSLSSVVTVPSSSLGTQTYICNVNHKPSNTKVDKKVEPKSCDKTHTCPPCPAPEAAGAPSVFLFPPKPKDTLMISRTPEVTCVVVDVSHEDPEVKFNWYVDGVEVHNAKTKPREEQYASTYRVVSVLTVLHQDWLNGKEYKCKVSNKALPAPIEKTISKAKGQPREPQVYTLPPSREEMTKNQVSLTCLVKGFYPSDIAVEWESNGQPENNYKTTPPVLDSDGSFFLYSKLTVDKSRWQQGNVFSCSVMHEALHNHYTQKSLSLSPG
light: B3 light with A114N, S116T, S154G, T165K
notes: Original Hum1 VL + IGLC1 light chain; also called antibody PC334; Hum1_IGLC1

Experiments:
human SIRP-α v1 [1] = molecular target: T5, human SIRP-α v1 (human, UniProt P78324 31-149); experiment: SPR (refers to Table M)
T5 construct: used as soluble SPR analyte; also called Human V1; hSIRPa v1
T5 sequence (P78324 31-149): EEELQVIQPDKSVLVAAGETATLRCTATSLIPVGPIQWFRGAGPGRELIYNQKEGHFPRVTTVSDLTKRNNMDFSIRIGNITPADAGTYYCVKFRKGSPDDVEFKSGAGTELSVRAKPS

BL6 mouse SIRP-α protein [2] = molecular target: T1, BL6 mouse SIRP-α protein; experiment: SPR KD (ProteOn XPR36), antibody on chip, SIRP analyte in solution
human SIRP-α v1 [3] = molecular target: T5, human SIRP-α v1; experiment: binding affinity KD (SPR; method not restated in Example 7)
[4] = molecular target: T2, cynomolgus SIRP-α (SEQ ID NO:11); experiment: as above
NOD mouse SIRP-α protein = molecular target: T3, NOD mouse SIRP-α protein; experiment: as above
BL6 mouse SIRP-α protein [5] = molecular target: T1, BL6 mouse SIRP-α protein; experiment: as above
[6] = molecular target: T4, BALBc mouse SIRP-α protein; experiment: as above
human SIRP-β = molecular target: T6, human SIRP-β (human, UniProt O00241 30-148); experiment: as above
T6 construct: also called SIRPb; hSIRPb
T6 sequence (O00241 30-148): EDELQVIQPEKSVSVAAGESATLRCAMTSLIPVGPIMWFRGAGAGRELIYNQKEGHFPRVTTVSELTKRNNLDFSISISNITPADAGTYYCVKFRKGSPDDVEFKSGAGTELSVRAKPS

human SIRP-γ = molecular target: T7, human SIRP-γ (human, UniProt Q9P1W8 29-147); experiment: as above
T7 construct: also called SIRPg; hSIRPg
T7 sequence (Q9P1W8 29-147): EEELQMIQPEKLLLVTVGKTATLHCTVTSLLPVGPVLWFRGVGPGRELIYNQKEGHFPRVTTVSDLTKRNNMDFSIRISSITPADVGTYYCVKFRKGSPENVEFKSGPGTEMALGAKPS

human SIRP-α v2 = molecular target: T8, human SIRP-α v2 (human); experiment: as above
T8 construct: soluble SPR analyte; also called Human V2; hSIRPa v2
T8 sequence (chain, as listed by the source): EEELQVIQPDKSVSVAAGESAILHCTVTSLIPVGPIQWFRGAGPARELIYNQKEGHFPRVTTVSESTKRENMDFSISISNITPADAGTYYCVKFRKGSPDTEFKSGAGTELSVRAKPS

Binder	Kd (human SIRP-α v1 [1]) [nM]	Kd (BL6 mouse SIRP-α protein [2]) [nM]	Kd (human SIRP-α v1 [3]) [nM]	Kd [4] [nM]	Kd (NOD mouse SIRP-α protein) [nM]	Kd (BL6 mouse SIRP-α protein [5]) [nM]	Kd [6] [nM]	Kd (human SIRP-β) [nM]	Kd (human SIRP-γ) [nM]	Kd (human SIRP-α v2) [nM]
B1	≤ 0.01	415000	–	–	–	–	–	–	–	–
B2	≤ 0.01	533000	–	–	–	–	–	–	–	–
B3	–	–	0.00206	0.0389	2.93	9.25	9.53	0.0122	–	–
B4	–	–	0.00211	0.0501	6.37	19.7	7.87	0.0327	0.0352	0.0823
B5	–	–	0.0151	0.0774	8.19	3.29	6.75	0.0371	0.0452	0.0438
